{
  "source": "paper PMC5436579",
  "about": "(2017)",
  "proteins": {"B1": {"name": "AmpR effector-binding domain (protein)", "chain": "LLERFEGGHYRDVLTVGAVGTFTVGWLLPRLEDFQARHPFIDLRLSTHNNRVDIAAEGLDYAIRFGGGAWHGTEALALFEAPLTVLCCPEVAAQLHSPADLLQHTLLRSYRADEWPLWFQAAGLPAHAPLTRSIVFDTSLAMLEAARQGVGVALAPAAMFARQLASESIRRPFATEVSTGSYWLTRLQSRGETSAMLAFRGWLLEMAAVEARGR"}},
  "molecular_target": "the molecule itself",
  "data": [
    {"protein": "B1", "values": [
      {"measurement": "Kd", "value": "< 1000", "unit": "nM"}
    ]}
  ]
}
